# Experimental data published in the supplement of paper PMC9170038.
# Tested on: K4 kissing-loop RNA reporter
# Assay: apparent KD of K4 kissing-loop reporter; higher = weaker reporter binding
# Details: Eterna round: R107; input ligand: theophylline 20 uM
# Protocol: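 RNA-MaP round R107: designed RNA switches with theophylline, tryptophan, arginine or FMN aptamers are transcribed on-chip within common flanks. They are titrated with a labelled K4 kissing-loop RNA reporter in RNA-MaP buffer (100 mM Tris pH 7.5, 80 mM KCl, 4 mM MgCl2), without ligand or with the indicated ligand. Median apparent KD per design.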
# 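Further: bound reporter read as fluorescence of individual clusters on recovered sequencing chips by microscopy, with normalized cluster intensities fitted with a binding model.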
row,Sequence,apparent KD of K4 kissing-loop reporter [nM]
1,AAAUAGAUCAGUCAUCCAGUGAUGUUGGAAGGAGCGUGCGAAAGCACAGGUAGGUCGCCGAAAUAAAAGUGGCUGAUCAAAAUAA,193
2,CCAGUGAUAAACGAUACCAGAAAUACCUUAUUUGGCCGGCGGAGUGAUGUUCCUAAUACUUUCCCUUGGCAGCGUCGAAUGCUAG [theeternabot_sameState_KL_Theo_B_16],99
3,GUUUGGCGGACGGCCGCCACUCGGACGAGUCACAGUGAUGUUGUGGUUUGCCAGUCGACUUCAUCGAGGACCGGGUUUGUCGGGC [Exclusion Tryptophan B GF 20],314
4,GUAUAUCGAACUGAUACCAGAGAAUAUAGCAGUGAUGUUGCAUAUAUGAAUAAGACUCGACUCCCUUGGCAGCGGGAAGAUAUAC [On purpose 2],166
5,AGUUAUGUUGCGGCCGCCACUGCGCGAGUGAUGUUCGUGGCAUAUAUAAUGUUAUAUAUGCAUCACAGGACCGGGCGGCAUAGCG [Same State - Tryptophan B],329
6,UAGGAGUGAUGUUCCAUAUCUUGAGCCGAAGGAGCGGCAUUAUAGCCAGGUAGGUCGCGGCAGAAGGUACCAGUGAUGUUGGAAA [Same State Arginine A GF5],202
7,UGGAGUUGACGAAGAGUCAACUCCUGAGAUACCAGUGACGAAAGUCACCCUUGGCAGCUCUCUGCCAGUGAUGUUGGUUUAUAAG [#07 K4 Theophylline A Same State],177
8,UGUACCGAAUCAGGAUAUGUCGUCGAAAGACGAAAUGGAGUGAUGUUCCUUAAACUGCGAAAGCAGACAGAAGGGAUUUGGUACU [FmnBS 29 A9+U77],403
9,CCUGCAGCUGUUACCGAGGGAUGCUACGGACGAGGACCGGUACGGCCGCCACUCGCCAGUGAUGUUGGUGAGGGAGGACGUUACU [KL-XTryp-A21],103
10,UGAUGUUUAGGUCACCCAGUGAUGUUGGAAGGAGCGUGCGAAAGCACAGGUAGGUCGCCAACCUAAAAGUGACCUGAGCAUCUAA [#SwitchBubble 8 #K4Early],427
11,UCCUAGGCUCGAAAGAGCCUAGGAUUUACUCAGGAUAUCCGGAAACGGAGAAGGGAGUAACUAGUGAUGUUAGGGAUUCCCUAUU,131
12,GUACCUUGGAAACAAGGACAGCUAACCGAAGGAGCGCGUGAAAACGCAGGUAGGUCGCGGUAGCGGAGUGAUGUUCCGCGAGAGC [Same State Arginine A GF 19],103
13,UGAUACCAGACGGCCGCCACUCCUGCAGUCAAAGACUGCAAGGAAAUAUUCGUCCAGUGAUGUUGGAGGACCGGGUCUGGUAUCU [TrypBX 9 #SwitchBubble #Palindromic #StaticStem],670
14,CCGGGCGGCUGAAGGAGCGGGCGGGCCCGAGUGAUGUUCGGGUGGACCGUGAGGUCCGGUGCCCAGGUAGGUCGCGGUUCCGCCC [#2 Same State - Arginine B Attempt #8 (HarryS)],296
15,GGCCGAAGAGAAGGAUAUGGUUUCACGCGUCGUUAGUGAUGUUAAUGCGCAUGCCUUAGUAUAGAGCCAGAAGGUCUGGUCAGAA [theeternabot_sameState_KL_FMN_B_34],210
16,CCAUCGCUAUUCGAUACCAGCUACUUAGUGAUGUUAAGUUAAAAUCAAUUGUAGAUUGAAAGCCCUUGGCAGCGAAUAGUGAUGG [Theophylline B K4 21],83.8
17,UGAUAGGACAGAAGGAGCGGUAGUGAUGUUGCCAAAAGGGUAAGGUGUCAAAAGACACCCUACCAGGUAGGUCGCUGUCCUAUCU,87
18,CCAACAACGAGUGAUGUUCGUUGAUCAGAAGGAGCGUCAAUAAUGACAGGUAGGUCGCUGAUAAUUGGAAAUAGGGCAAUAGCUU [Same State Arginine A GF12],120
19,AUGUACACGAUAGUGUACUCCUAGUGAUGUUAGGAUAUGCAGAUAUGCAGAAGGAACAAGUCAUCUGACAAUAGUCGGAUGACAA [FmnAX 9 #OpenEnded #K4Early],125
20,ACGUGAAGCGACUCCUAGUUAAACCGGGAAGGAGCGCGGAUAACCGCAGGUAGGUCGCCCGGAAGCCGGACCAGUGAUGUUGGUC [Exclusion Arginine A Gf 26],217
21,GGAUAGGACAGAGGAUAUCCUAAAGAGGCAAGAAUAACUUGUCUCAAAUGGAUGACCAGUGAUGUUGGAGAAGGCUGUCCUAUCG [FmnBX 6 - #SwitchBubble #StaticStem],147
22,GGGAGUAGUGCGGCCGCCACUGAGAAAGAAGAAGAAUAUAGUGAUGUUAUAUAGGAAGGGAAGAAUAGGACCGGGCAUUAGAUUU [SSTRyptB.Z],275
23,UGAUACCAGACUGAUACCAGCCAGUGAUGUUGGCUAAUCCAAGAAGGAGUCAAAGACUCCGGCCCUUGGCAGCAGUCUGGUAUCU [TheoBX 3 #SwitchBubble #StaticStem],110
24,GCCGUACGCAUGGAUACCAGCGCUCGUCACCUAGCAGUGAUGUUGCUAAUGCCACGAGGACGCCCUUGGCAGCCAUGCGUACGGC,83.3
25,CGCAAAUCGUCGGCCGCCACUGCAUUUGAACGCUAAUUGUCUCUGCGCGGAGUGAUGUUCUGUGCCAGGACCGGGACGGAUUUCG [theeternabot_exclusion_KL_Trp_B_21],499
26,GGAUAGGACAAAGGAUAUGGGCUAGGCAAGAAUAACUUGUCUAGCAAAUCCAUGAGGAGUGAUGUUCCAGAAGGUUGUCCUAUCG [FmnBX 1 A11+U75],127
